Source: US20230122079A1
Blank lines part the entries; values can stand above or below the binder they belong to.

Columns and labels:
[1] = biological target: recombinant IL12 (Peprotech) (human) (UniProt P29460); assay: SPR; SPR binding to immobilized IL12; kinetics post-digest with Matriptase
[2] = biological target: recombinant IL12 (Peprotech) (human) (UniProt P29460); assay: SPR; SPR binding to immobilized IL12; kinetics post-digest with Matriptase; ka near instrument detection limit

Sequence of recombinant IL12 (Peprotech) (human) (P29460 23-328 limits assumed, chain 1 of 2): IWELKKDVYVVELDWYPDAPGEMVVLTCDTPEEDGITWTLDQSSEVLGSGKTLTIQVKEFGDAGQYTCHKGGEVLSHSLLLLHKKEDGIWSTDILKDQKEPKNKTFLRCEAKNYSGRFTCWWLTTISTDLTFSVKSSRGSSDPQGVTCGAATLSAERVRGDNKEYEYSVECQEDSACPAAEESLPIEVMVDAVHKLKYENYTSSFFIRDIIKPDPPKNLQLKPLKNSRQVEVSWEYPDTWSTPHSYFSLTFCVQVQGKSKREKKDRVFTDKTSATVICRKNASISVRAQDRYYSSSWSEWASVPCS
Sequence of recombinant IL12 (Peprotech) (human) (chain, as listed by the source limits assumed, chain 2 of 2): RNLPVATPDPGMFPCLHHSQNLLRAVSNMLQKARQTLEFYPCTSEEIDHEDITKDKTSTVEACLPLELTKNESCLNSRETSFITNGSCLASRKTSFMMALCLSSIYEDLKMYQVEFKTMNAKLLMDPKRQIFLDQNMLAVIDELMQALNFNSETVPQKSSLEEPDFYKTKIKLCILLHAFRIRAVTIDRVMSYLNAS

- Kd [1]: 1.47 pM
- koff [1]: 6.48e-05 s⁻¹
- kon [2]: 4.19e+07 M⁻¹ s⁻¹
B1: v32909 digested with Matriptase (Fc fusion)
chain 1: SANAGGGGSGGGGSQVQLVESGGGVVQPGRSLRLSCAASGFTFSSYGMHWVRQAPGKGLEWVAFIRYDGSNKYYADSVKGRFTISRDNSKNTLYLQMNSLRAEDTAVYYCKTHGSHDNWGQGTMVTVSSGGGGSMSGR
chain 2: SANAGGGGSGGGGSQSVLTQPPSVSGAPGQRVTISCSGSRSNIGSNTVKWYQQLPGTAPKLLIYYNDQRPSGVPDRFSGSKSGTSASLAITGLQAEDEADYYCQSYDRYTHPALLFGTGTKVTVL

- Kd [1]: 5.37 pM
- koff [1]: 4.68e-05 s⁻¹
- kon [2]: 8.65e+06 M⁻¹ s⁻¹
B2: v32910 digested with Matriptase (Fc fusion)
chain: SANAGGGGSGGGGSQVQLVESGGGVVQPGRSLRLSCAASGFTFSSYGMHWVRQAPGKGLEWVAFIRYDGSNKYYADSVKGRFTISRDNSKNTLYLQMNSLRAEDTAVYYCKTHGSHDNWGQGTMVTVSSGGGGSGGGSGGGSGGGGSGGGGSQSVLTQPPSVSGAPGQRVTISCSGSRSNIGSNTVKWYQQLPGTAPKLLIYYNDQRPSGVPDRFSGSKSGTSASLAITGLQAEDEADYYCQSYDRYTHPALLFGTGTKVTVL
